Where “and” joins values, the source holds several entries; their conditions need not be identical. Equal entries are not always repeated.
Conditions: Capra hircus, pH 6, Cacodylate 0.03 M, Potassium chloride 0.1 M, reversible: Yes; for denaturant midpoint (higher = more stable) / unfolding free energy: 25 °C, GdnHCl

Chain of wild type, Q3LUG9 (Q3LUG9 entry or part of it): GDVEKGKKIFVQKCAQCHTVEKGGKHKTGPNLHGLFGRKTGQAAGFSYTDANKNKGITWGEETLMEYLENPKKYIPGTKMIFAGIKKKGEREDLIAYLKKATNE

In the case of wild type, Q3LUG9, the “denaturant midpoint (higher = more stable)” value (Absorbance) is reported as 2.7 M and 2.6 M, the unfolding free energy (Absorbance) is reported as 9.49 kcal/mol and 9.39 kcal/mol and the “denaturant midpoint (higher = more stable)” value (CD) is reported as 2.5 M and 2.6 M. The unfolding free energy (CD) was 9.3 kcal/mol and 9.58 kcal/mol and the “heat capacity change of unfolding” value (Thermal, CD) was 1.29 kcal/mol/K.

Source: FireProtDB (doi:10.1016/j.bpc.2008.08.008)
